In the RNAGym collection of RNA variant scans (doi:10.1021/acssynbio.7b00057):

B1: Pistol ribozyme (parent)
chain: GGGUCGUUGUUCCAUAAUCGCGUGGAUAUGGCACGCAAGUUUCUACCGGGCACCGUAAAUGUCCGACUGGAGCCGUUCGGGCGGCUAUAAACAGACCUCAGGCCCGAAGCGUGGCGGCACCUGCCGCCGGUGGUAAAAAAGAUCGGAAGAGCACACGUCU

Variants of: B1
Assay: aptazyme ON/OFF ratio, guanine; higher = stronger switching; co-transcriptional cleavage with and without guanine

In order of rising “aptazyme ON/OFF ratio” value:
1. U7C U8A G9C U10C U11A C12G  1.03
2. U7C U8A G9C U10C U11A C12A  1.03
3. U7C U8A G9C U10C C13A  1.03
4. U7C U8A G9A U10G U11G C13U  1.04
5. U7C U8A G9A U11G C13G  1.04
6. U7C U8A G9C U10C U11C C12G C13G  1.04
7. U7C U8A G9C U10C U11C C12G C13A  1.04
8. U7C U8A G9C U10C U11C C12G C13U  1.04
9. U7C U8A G9A U10G U11G C13G  1.05
10. U7C U8A G9C C12A C13G  1.05
11. U7C U8A G9C U10A U11C  1.05
12. U7C U8A G9C U10C C13G  1.05
13. U7C U8A G9C C12U  1.05
14. U7C U8A G9C U10C U11A C12U  1.06
15. U7C U8A G9C U10G U11G C12A C13U  1.06
16. U7C U8A G9C U10C C12G C13A  1.06
17. U7C U8A G9C U11A C13G  1.06
18. U7C U8A G9C U10C C12G C13U  1.07
19. U7C U8A G9C U10C C12G C13G  1.07
20. U7C U8A G9C U10C U11G C12U  1.08
21. U7C U8A G9C U10C U11G C12A C13U  1.08
22. U7C U8A G9C U10C U11G C12G  1.09
23. U7C U8A G9C U10G U11G C12A C13A  1.09
24. U7C U8A G9C U11A C12U C13G  1.1
25. U7C U8A G9C U10C U11A C12G C13A  1.1
26. U7C U8A G9C U10C U11A C12G C13G  1.1
27. U7C U8A G9C U11A C12A  1.1
28. U7C U8A G9A U10G U11G C13A  1.11
29. U7C U8A G9C U10A C12G C13A  1.11
30. U7C U8A G9C U10C U11G C12A  1.11
31. U7C U8A G9C U11A C13A  1.11
32. U7C U8A G9A U10G U11G C12U C13A  1.11
33. U7C U8A G9C U11C C12G  1.11
34. U7C U8A G9C U11C C12A  1.11
35. U7C U8A G9C U10G U11G C12A C13G  1.12
36. U7C U8A G9C U10A U11G C12A C13G  1.12
37. U7C U8A G9C U10C U11A C12G C13U  1.12
38. U7C U8A G9C U11A C12G  1.12
39. U7C U8A G9C U11A C13U  1.13
40. U7C U8A G9C U10A U11G C12A C13A  1.13
41. U7C U8A G9C U11A C12G C13A  1.13
42. U7C U8A G9C U11G C12A C13A  1.13
43. U7C U8A G9C C12G  1.13
44. U7C U8A G9C U10A C12A C13G  1.14
45. U7C U8A G9A U11G C12U C13G  1.14
46. U7C U8A G9C U10A U11G C12A C13U  1.14
47. U7C U8A G9A U10G U11G C12U C13G  1.14
48. U7C U8A G9C U11A C12G C13U  1.14
49. U7C U8A G9C U11C C12U  1.14
50. U7C U8A G9C C12A C13A  1.15
51. U7C U8A G9C C12A C13U  1.15
52. U7C U8A G9C U11A C12U  1.15
53. U7C U8A G9C U11G C12A C13U  1.15
54. U7C U8A G9C U11G C12A C13G  1.15
55. U7C U8A G9A U11G C12U C13A  1.16
56. U7C U8A G9C U11A C12U C13A  1.16
57. U7C U8A G9C U10A U11A C12A  1.16
58. U7C U8A G9C U10C U11G C12A C13G  1.17
59. U7C U8A G9C U10G C12A  1.17
60. U7C U8A G9C U11A C12G C13G  1.17
61. U7C U8A G9C C12A  1.17
62. U7C U8A G9A U11G C12U C13U  1.18
63. U7C U8A G9A U11A C12U C13G  1.18
64. U7C U8A G9A U11G C13A  1.18
65. U7C U8A G9C U10A U11A C12G  1.18
66. U7C U8A G9C U11A C12U C13U  1.2
67. U7C U8A G9A U10G U11G C12U C13U  1.2
68. U7C U8A G9C U10A U11A C12U  1.2
69. U7C U8A G9C U10A C12A C13U  1.21
70. U7C U8A G9C U10A C12G C13G  1.21
71. U7C U8A G9C U10C U11G C12A C13A  1.21
72. U7C U8A G9C U10C C13U  1.23
73. U7C U8A G9A U11G C13U  1.25
74. U7C U8A G9C U10A C12A C13A  1.26
75. U7C U8A G9C U10A C12G C13U  1.26
76. U7C U8A G9A U11A C12U C13U  1.27
77. U7C U8A G9C U10A U11A  1.27
78. U7C U8A G9C U10G C12G  1.28
79. U7C U8A G9C U10A U11G  1.29
80. U7C U8A G9A U11A C12U C13A  1.32
81. U7C U8A G9C U10G C12U  1.36
82. U7C U8A G9C U10G  1.97
83. U7C U8A G9C U10C  2.31
